T1: Rhesus D antigen (human, UniProt Q02161 2-417)
T1 construct: whole, on cells; Presented on RhD-positive erythrocytes in all assays; also called RhD; RhD antigen
T1 sequence (looked up): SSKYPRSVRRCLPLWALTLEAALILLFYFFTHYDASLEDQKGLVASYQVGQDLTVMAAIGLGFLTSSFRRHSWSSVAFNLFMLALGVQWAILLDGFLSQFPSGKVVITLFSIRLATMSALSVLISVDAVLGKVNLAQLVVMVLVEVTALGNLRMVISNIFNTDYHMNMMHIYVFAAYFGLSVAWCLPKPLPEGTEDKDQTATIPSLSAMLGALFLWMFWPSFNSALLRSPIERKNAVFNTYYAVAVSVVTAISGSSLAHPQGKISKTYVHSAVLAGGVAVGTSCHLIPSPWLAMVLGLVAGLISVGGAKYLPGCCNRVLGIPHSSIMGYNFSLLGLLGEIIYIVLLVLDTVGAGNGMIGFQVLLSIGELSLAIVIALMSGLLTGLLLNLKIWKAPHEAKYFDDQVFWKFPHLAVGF


biological target: T1, Rhesus D antigen; test: agglutination assay, Fab on RhD(+)/RhD(-) RBC mix
Procedure: After each round of panning single colonies were picked for analysis of their binding properties to red blood cells in agglutination assays. Briefly, single colonies were inoculated into 2×YT/100 μg/mL carbenicillin/1% glucose and shaken overnight at 37° C. The next day, DeepWell plates were inoculated using 900 μl 2×YT/100 μg/mL carbenicillin/0.1% glucose and 10 μl overnight culture. The plates were shaken for two hours at 37° C., before Fab induction was performed with addition of 300 μl 2×YT/100 μg/mL carbenicillin/0.25 mM IPTG per well. The plate was shaken overnight at 30° C. The following day, the bacteria were pelleted by centrifugation (3200×g, 4° C., 10 minutes), and re-suspended in 100 μl of 0.8 M NaCl, 0.2×PBS, 8 mM EDTA, and incubated for 15 minutes on ice in order to perform a periplasmic extraction of the Fab fragments. The plate was transferred to −20° C. and finally the suspension was thawed and centrifugation was performed for 10 minutes at 4° C. and 3200×g. The periplasmic extract was used in ELISA assays for analysis of Fab content and in agglutination assays to evaluate the binding potential of the individual Fab fragments. The agglutination assay was performed as follows: RhD(−) and RhD(+) RBC were mixed in a 1:1 ratio, and washed 3 times in PBS. After the final wash, the cell mix was re-suspended in 1% BSA in PBS at a density of 1% cells, 50 μl was added to each well of a 96-plate. Periplasmic extracts were added to the wells. As a positive control Rhesogamma P immunoglobulin (Aventis) was used according to the manufacturer's instructions. The plates were incubated for one hour at room temperature with gentle shaking. The cells were washed three times with PBS, before the secondary antibody was added (goat anti-human Fab/FITC conjugate, Sigma F5512) in a 1:100 dilution. The plates were left for agglutination for one hour at room temperature without shaking. Fab fragments positive in the agglutination assay was determined by visual inspection, and recorded by taking a picture. Quantization of the binding activity of the Fab fragments was performed by FACS analysis of the agglutination samples.

| Binder | binding result |
| --- | --- |
| RhD159.119B09 (Fab, V domains shown, Tested as Fab (periplasmic extract)) VH: EVQLVETGGGLVQPGGSLRLSCAASGFSFRSYDMNWVRQAPGKGLEWVSYISGRGSTTYYADSVKGRFTISRDNAKNSLYLQMNSLRAEDTAVYYCARDLYGDYDPKSYYYYAMDVWGHGTTVTVSS VL: EIVMTQSPGTLSLSPGERATLSCRASHTVSSGYLAWYQQKPGQAPRLLIYGASNRATGVPDRFGGSGSGTDFTLTISRLEPEDSAVYFCQQYGTSPGVTFGQGTRLEIER | binds |
| RhD295.119B11 (Fab, V domains shown, Tested as Fab (periplasmic extract)) VH: QVQLVESGGGLVQPGGSLRLSCVGSGFTFRSFDMNWVRQAPGKGLEWISYINSRGNTRYYVDSVKGRFTISRDNAKNSLYLQMNSLRAEDTAVYYCARDLYGDYDPKSYYYYGMDVWGQGTMVTVSS VL: EIVLTQSPGTLSLSPGERATLSCRASQSFSSGYLAWYQQKPGQAPRLLIYGASNRATGIPDRFSGSGSGTDFTLTISRLEPEDFAVYYCQHYGSSPPITFGQGTRLEIKR | binds |
| RhD296.126A03 (Fab, V domains shown, Tested as Fab (periplasmic extract)) VH: EVQLVESGGGVVQPGRSLRLSCEASGFTFSNYGMHWFRQAPGKGLEWVAIIWYDGSNKHYADSVKGRFTISRDNSKNTLYLQMNSLRAEDTAVYFCAREIASRGYSRYLYYFDSWGQGTLVTVSS VL: DIQMTQSPSSLSASVGDRVTITCRASQSISSYLNWYQQKPGKAPKLLIFAASSLQSGVPSRFSGSGSGTDFSLTISSLQPEDFATYYCQQSYSSLALTFGGGTKVEIKR | binds |
| RhD160.119C07 (Fab, V domains shown, Tested as Fab (periplasmic extract)) VH: EVQLVESGGGVVQPGRSLRLSCAASGFTFSNYGMHWVRQAPGKGLEWVAVIWYDGSNRFYADSVKGRFTISRDNSKNTLYLQMNNLRAEDTALYSCAREITTTVVVRRHYLMDIWGQGTTVTVSS VL: DIQLTQSPSSLSASVGDRVSITCRASQGISNSLAWYQQKPGKVPKLLIYAASTLQSGVPSRFSGGGSGTDFTLTISSLQPEDVATYYCQKYNSAPFAFGPGTKVDIKR | binds |
| RhD161.119E09 (Fab, V domains shown, Tested as Fab (periplasmic extract)) VH: EVQLVESGGGVVQSGRSLRLSCAASGFTFSNNGMHWVRQAPGKGLEWVAFIWYDGSNKYYADSVKGRFTISRDNSKNTLYLQMDGLRAEDSAVYYCAREEIAARLYSRYHYAMDVWGQGTMVTVSS VL: DIQMTQSPSFLSASVGDRVTITCRASQGIRRYLAWFQQKPGKAPKLLIFSASTLQSGVPSRFSGSGSGTEFTLTISSLQPEDFATYYCQQLSSYPPYTFGQGTKLEIKR | binds |

biological target: T1, Rhesus D antigen; test: Fab screening on red blood cells (agglutination/FACS)

| Binder | binding result |
| --- | --- |
| RhD299.127A12 (Fab, V domains shown, Tested as Fab (periplasmic extract)) VH: QVQLVESGGGVVQPGRSLRLSCAASGFTFSNFGMHWVRQAPGKGLEWVAVIWYDGSNKDYADSVKGRFTISRDNSKRTLYLQMNSLRAEDTAVYYCARELARGRLRDLDYWGQGTLVTVSS VL: QAVVTQEPSLTVSPGGTVTLTCASSTGAVTTGYYPNWFQQKPGQAPRALIYSTSKKHSWTPARFSGSLLGGKAALTLSGVQPEDEAEYYCLLFYGGAQLGVFGGGTKLTVLG | binds |
| RhD300.134H09 (Fab, V domains shown, Tested as Fab (periplasmic extract)) VH: QVQLVESGGGVVQPGRSLRLSCAASGFTFSSYGMHWVRQAPGKGLEWVAVIWYDGSNKYYADSVKGRFTISRDNSKNTLYLQMNSLRAEDTAVYYCAREFYTRSGLWSQGYSYYMDVWGKGTTVTVSS VL: QTVVTQEPSFSVSPGGTVTLTCGLSSGSVSARYYPSWYQQTPGQPPRTLIHSTNTRSSGVPDRFSGSILGNKAALTITGAQADDESDYYCVLYMGSGPWVFGGGTKLTVLG | binds |
| RhD301.160A04 (Fab, V domains shown, Tested as Fab (periplasmic extract)) VH: QVQLVESGGGVVQPGRSLRLSCAASGFTFSSYGMHWVRQAPGKGLEWVAVIWFDGGNKYYADSAKGRFTISRDNSKNTLYLQMNSLRAEDTAVYYCARDASVLSGLVTRRLVYYGMDVWGQGTTVTVSS VL: DVVMTQSPLSLPVTPGEPASISCRSSQSLLHRNGYNYLNWYLQKPGQSPQLLIYLGSNRASGVPDRFSGSGSGTDFTLKISGVEAEDVAFYYCMQGLRTPYTFGQGTKLEIKR | binds |
| RhD302.160B10 (Fab, V domains shown, Tested as Fab (periplasmic extract)) VH: QVQLVESGGGVVQPGRSLRLSCAASGFTFSSYGMHWVRQAPGKGLEWVAFISYDGSNKYYADSVKGRFTISRDNSKNTLSLQMNSLRAEDTAVYYCAKEHGYYRSSWYRNYYYYGMDVWGQGTTVTVSS VL: DIQLTQSPSSLSASVGDRVTITCRASQSISSYLNWYKQRPGKAPKLLIYAASTLQSGVPSRFSGSGSGTDFALTISSLQAEDFATYYCQQTYSTLWTFGQGTKVEITR | binds |
| RhD303.160B11 (Fab, V domains shown, Tested as Fab (periplasmic extract)) VH: QVQLVESGGGVVQPERSLRLSCAASGFTFSSYGMHWVRQAPGKGLEWVAVISYDGSNKYYADSVKGRFTISRDNSKNTLYLQMNSLRAEDTAVYYCAKDEVGYSSSWYRRYYYYAMDVWGQGTTVTVSS VL: EIVLTQSPGTLSLSPGETATLSCRASQSVSDRDLAWYQQKSGQSPRLLMYGGSTRAPGIPVRFSGSGSGTEFTLTISSLQSEDFAIYYCQHYHDWPPTFGQGTRLEIKR | binds |
| RhD304.164B06 (Fab, V domains shown, Tested as Fab (periplasmic extract)) VH: QVQLVQSGGGVVQPGRSLRLSCAASGFTFSSYGMHWVRQAPGKGLEWVAVIWYDGSNKYYADSVKGRFTISRDNSKNTLYLQMNSLRAEDTAVYYCARETVVVAAKIRNHYYYAMDVWGQGTTVTVSS VL: DIQMTQSPSSLSASLGGTVTLTCRSSQFISRYLNWYQQHPGKVPRLLISGASRLQRGVPSRFTGGGSGTDFTLTIKNVQPDDIATYFCQHSYRSGRAFGQGTTVEVKR | binds |
| RhD305.181E06 (Fab, V domains shown, Tested as Fab (periplasmic extract)) VH: QVQLVESGGGVVQPGRSLRLSCAASGFTFSSYGMHWVRQAPGKGLEWVAGIWYDGSNKYYADSVKGRFTISRDNSRNTMYLQMNSLRAEDTAVYYCAREQGGYSSSWYRRYYYYNMDLWGQGTTVTVSS VL: EIVLTQSPGSLSLSPGERATLSCRASQSVSSSYLAWYQQKPGQAPRLLIYGPSSRATGIPDRFSGSGSGTDFTLTISRLEPEDFAVYYCQHFGNSRGTFGQGTKVEIRR | binds |
| RhD306.223E11 (Fab, V domains shown, Tested as Fab (periplasmic extract)) VH: QVQLVESGGGVVQPGRSLRLSCAASGFTFSSYGMHWVRQAPGKGLEWVAVIWYDGSNKYYADSVKGRFTISRDNSKNTLYLQMNTLRDDDTAVYYCAREGTLYSSSWYRRYYYYGMDAWGQGTTVTVSS VL: EIVLTQSPGTLSLSPGERVTLSCRPSRYIASDYLAWYQLRPGQAPKLLIYGASSRATGIPDRFSGVGSPTDFTLTISRLEPEDFAMYYCHYSGGSPPYPFGQGTRLDIKR | binds |
| RhD307.230E11 (Fab, V domains shown, Tested as Fab (periplasmic extract)) VH: QVQLVETGGGVVQPGRSLRLSCAASGFTFSSYGMHWVRQAPGKGLEWVAGIWYDGSNKYYGDSVKGRFTISRDNSRNTLYLHMNSLRADDTAVYYCAREHGGSRSGWYTLRLAYYFDYWGQGTLVTVSS VL: DIQLTQSPSSLSASVGDRVTITCRASQYINVYLNWYQHKAGRAPKLLIYAASNLQSGVPPRFIGSGSGTDFTLTISSLQSEDFATYYCLQSFTVPRTFGPGTKVDVKR | binds |
| RhD317.144A02 (Fab, V domains shown, Tested as Fab (periplasmic extract)) VH: QVQLQESGPGLVKPSGTLSLTCAVSGGSIRGSNWWSWVRQPPGKGLEWIGEIHHGGSTNYNPSLKSRVTISVDKSKNRFSLKLSSVTAADTAVYYCARGTSYYDSSGYSFRGLVAFDIWGQGTMVTVSS VL: EIVLTQSPGTLSLSPGERATLSCRASQSVSSAFLAWYQQKPGQAPRLLIYGASSRATGIPDRFSGSGSGTDFTLTISRLEPEDFAVYYCQQYGSFSITFGQGTRLEIKR | binds |
| RhD319.187A11 (Fab, V domains shown, Tested as Fab (periplasmic extract)) VH: QVQLVESGGGVVQPGRSLRLSCAASGFTFSTYGMHWVRQAPGKGLEWVAVIWYDGSNKNYADSVKGRFTISRDNSKNTLYLQMNSLRAEDTAVYYCARDLQGYRSSWYRMYYYYGMDVWGQGTTVTVSS VL: QTVVTQEPSLTVSPGGTVTLTCASSTGAVTSGYYPNWFQQKPGQAPRALIYSTSNKHSWTPARFSGSLLGGKAALTLSGVQPEDEAEYYCLLYYGGAQRWVFGGGTILTVLG | binds |
